Where a chain is given by its changes, count along the chain named.
Columns and labels:
[1] = biological target: T1, recombinant human ATX beta isoform with N-terminal purification tag (human, UniProt Q13822 49-863); assay: SPR Biacore 3000, His-ATX beta captured on anti-Penta-His, mAb as analyte, bivalent analyte model
Experimental: (§1) Affinity measurements using surface plasmon resonance (SPR) were performed using a Biacore 3000 optical biosensor (Biacore) for ATXB3, ATXB6, ATXB8, ATXB9, ATXB13, and ATXB14. A biosensor surface was prepared by coupling anti-Penta-His antibody (Qiagen, Cat No. 34660) to the carboxymethylated dextran surface of a CM-5 chip (Biacore, Cat No. BR-1000-14) using the manufacturer instructions for amine-coupling chemistry. Approximately 15,000 RU (response units) of anti-Penta-His antibody were immobilized in each of four flow cells. The kinetic experiments were performed at 25° C. in running buffer (PBS+0.01% P20+100 ug/ml BSA). Serial dilutions of anti-ATX mAbs (ATXB3, B6, B8, B9, B13, B14) from 900 nM to 0.412 nM were prepared in running buffer. About 80 RU of human ATX beta-His tagged proteins were captured on flow cell 2 of the sensor chip. Flow cell 1 was used as reference surface. Capture of ATX was followed by five minutes injection (association phase) of anti-ATX mAbs at 50 uL/min, followed by 15 minutes of buffer flow (dissociation phase). The chip surface was regenerated by 15 seconds injection of 100 mM H₃PO₄ (Sigma, Cat No. 7961) at 50 uL/min. The collected data were processed using BIAevaluation software, version 3.2 (Biacore). First, double reference subtraction of the data was performed by subtracting the curves generated by buffer injection from the reference-subtracted curves for analyte injections. Then kinetic analysis of the data was performed using the Bivalent Analyte binding model with global fitting. Kd1 (Kₒₙ) was calculated as intrinsic KD with minimum avidity. The result for each mAb was reported in the format of Ka1 (On-rate, Kₒₙ), Kd1 (Off-rate, Koff) and KD1 (Equilibrium dissociation constant). Affinity measurements for ATXB18 were performed on a Proteon XPR36 system (Bio-Rad), using a protocol similar to the one used on the Biacore platform.
The five mAbs with the lowest IC50 values in the inhibition assays as well as ATXB3, a non-neutralizing antibody, were tested for their affinity to the human ATX-beta isoform, as measured by surface plasmon resonance. Due to nonspecific binding of the ATX antigen to the chip surface, these experiments had to be conducted in the reverse format, with ATX immobilized on the chip surface (ligand) and our antibodies in solution (analyte).

[2] = biological target: T1, recombinant human ATX beta isoform with …; assay: cell-based or functional assay
[3] = biological target: recombinant mouse ATX beta isoform (R&D Systems, Cat No. 6187-EN-010) (mouse, UniProt Q9R1E6 36-862); assay: cell-based or functional assay
[4] = biological target: T1, recombinant human ATX beta isoform with …; assay: SPR ProteOn XPR36, protocol similar to the Biacore one, bivalent analyte model
Experimental: as §1, with “Affinity measurements for ATXB18 were performed on a Proteon XPR36 system (Bio-Rad), using a protocol similar to the one used on the Biacore platform.” left out
The five mAbs with the lowest IC50 values in the inhibition assays as well as ATXB3, a non-neutralizing antibody, were tested for their affinity to the human ATX-beta isoform, as measured by surface plasmon resonance. […]

[5] = biological target: T1, recombinant human ATX beta isoform with …; assay: Fab-His ELISA
Procedure, shortened: (§2)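 Fab-His were captured on plates coated with 1 μg/ml sheep anti-human Fd (CH1), then incubated with 5 nM biotinylated human ATX for 1 hour at room temperature. Bound ATX was detected with SA-HRP by chemiluminescence, and binding was expressed relative to background.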

[6] = biological target: T1, recombinant human ATX beta isoform with …; assay: ELISA, Fab-His captured by anti-Fd, 5 nM biotinylated human ATX beta
Procedure, shortened: as §2

B1: mAb ATXB6 (antibody, V domains shown)
VH: QVQLVQSGAEVKKPGSSVKVSCKASGGTFSSYAISWVRQAPGQGLEWMGGIIPIFGTANYAQKFQGRVTITADESTSTAYMELSSLRSEDTAVYYCARDLYIYGDLDYWGQGTLVTVSS
VL: DIQMTQSPSSLSASVGDRVTITCRASQSIGGWLNWYQQKPGKAPKLLIYTASSLQSGVPSRFSGSGSGTDFTLTISSLQPEDFATYYCQQSYTYPITFGQGTKVEIK
notes: Human IgG1/kappa from Fab F73
Kd [1]: 0.329 nM | koff [1]: 0.000292 s⁻¹ | kon [1]: 444000 M⁻¹ s⁻¹ | IC50, inhibition of LPC hydrolysis by human ATX beta (1.5 nM), coupled choline oxidation (Amplex Red) assay [2]: 1 nM | IC50, inhibition of LPC hydrolysis by mouse ATX, coupled choline oxidation (Amplex Red) assay [3]: 0.3 nM

B2: mAb ATXB8 (antibody, V domains shown)
VH: B1 VH with L100S, Y101S, I102A, L106F
VL: B1 VL with G30D, T50A, T93S, Y94T, I96L
notes: Human IgG1/kappa from Fab F96
Kd [1]: 1.77 nM | koff [1]: 0.000883 s⁻¹ | kon [1]: 249000 M⁻¹ s⁻¹ | IC50, inhibition of LPC hydrolysis by human ATX beta (1.5 nM), coupled choline oxidation (Amplex Red) assay [2]: 0.7 nM | IC50, inhibition of LPC hydrolysis by mouse ATX, coupled choline oxidation (Amplex Red) assay [3]: 0.8 nM

B3: mAb ATXB13 (antibody, V domains shown)
VH: B1 VH with L100F, Y101S, I102V, L106F
VL: B1 VL with G30A, G31K, T50A, T93S, Y94T, I96L
notes: Human IgG1/kappa from Fab F143
Kd [1]: 0.6 nM | koff [1]: 0.000329 s⁻¹ | kon [1]: 274000 M⁻¹ s⁻¹ | IC50, inhibition of LPC hydrolysis by human ATX beta (1.5 nM), coupled choline oxidation (Amplex Red) assay [2]: 1 nM | IC50, inhibition of LPC hydrolysis by mouse ATX, coupled choline oxidation (Amplex Red) assay [3]: 0.5 nM

B4: mAb ATXB14 (antibody, V domains shown)
VH: B1 VH with T57N, A58T, L100I, Y101S, I102G
VL: B1 VL with G30D, T50A, T93S, Y94T, I96L
notes: Human IgG1/kappa from Fab F104
Kd [1]: 0.369 nM | koff [1]: 0.000583 s⁻¹ | kon [1]: 789000 M⁻¹ s⁻¹ | IC50, inhibition of LPC hydrolysis by human ATX beta (1.5 nM), coupled choline oxidation (Amplex Red) assay [2]: 0.8 nM | IC50, inhibition of LPC hydrolysis by mouse ATX, coupled choline oxidation (Amplex Red) assay [3]: 1.5 nM

B5: mAb ATXB9 (antibody, V domains shown)
VH: QVQLVQSGAEVKKPGSSVKVSCKASGGTFSSYAISWVRQAPGQGLEWMGGISPYFGNANYAQKFQGRVTITADESTSTAYMELSSLRSEDTAVYYCARYGDFGGNVFTEFDYWGQGTLVTVSS
VL: EIVLTQSPGTLSLSPGERATLSCRASQSVNNSDLAWYQQKPGQAPRLLIYTASSRATGIPDRFSGSGSGTDFTLTISRLEPEDFAVYYCQQATTVPLTFGQGTKVEIK
notes: Human IgG1/kappa from Fab F89
Kd [1]: 47.8 nM | koff [1]: 0.000322 s⁻¹ | kon [1]: 3370 M⁻¹ s⁻¹ | IC50, inhibition of LPC hydrolysis by human ATX beta (1.5 nM), coupled choline oxidation (Amplex Red) assay [2]: 14.5 nM | IC50, inhibition of LPC hydrolysis by mouse ATX, coupled choline oxidation (Amplex Red) assay [3]: 9.3 nM

B6: mAb ATXB7 (antibody, V domains shown)
VH: QVQLVQSGAEVKKPGSSVKVSCKASGGTFSSYAISWVRQAPGQGLEWMGGIIPIFGTANYAQKFQGRVTITADESTSTAYMELSSLRSEDTAVYYCARPIGTGYYGFFDYWGQGTLVTVSS
VL: B1 VL with G30A, G31K, T50F, T93S, Y94T, I96L
IC50, inhibition of LPC hydrolysis by human ATX beta (1.5 nM), coupled choline oxidation (Amplex Red) assay [2]: 158 nM | IC50, inhibition of LPC hydrolysis by mouse ATX, coupled choline oxidation (Amplex Red) assay [3]: 217 nM

B7: mAb ATXB3 (antibody, V domains shown)
VH: EVQLVQSGAEVKKPGESLKISCKGSGYSFTSYWIGWVRQMPGKGLEWMGIIYPGDSDTRYSPSFQGQVTISADKSISTAYLQWSSLKASDTAMYYCARPYGTFDYWGQGTLVTVSS
VL: EIVLTQSPATLSLSPGERATLSCRASQSVADSLAWYQQKPGQAPRLLIYKASNRATGIPARFSGSGSGTDFTLTISSLEPEDFAVYYCQQSNGWPRTFGQGTKVEIK
notes: Human IgG1/kappa from Fab F17
Kd [1]: 0.715 nM | koff [1]: 0.000303 s⁻¹ | kon [1]: 212000 M⁻¹ s⁻¹

B8: mAb ATXB18 (antibody, V domains shown)
VH: B1 VH with L100A, Y101S, I102T
VL: B1 VL with G30D, T50A, T93S, Y94T, I96L
notes: Human IgG1/kappa from Fab F97
Kd [4]: 0.673 nM | koff [4]: 0.000614 s⁻¹ | kon [4]: 949000 M⁻¹ s⁻¹

B9: Fab F85 (VH H58, VL L79) (Fab, V domains shown)
VH: QVQLVQSGAEVKKPGSSVKVSCKASGGTFSSYAISWVRQAPGQGLEWMGGIIPIFGTANYAQKFQGRVTITADESTSTAYMELSSLRSEDTAVYYCARDLYGIDIYYALDYWGQGTLVTVSS
VL: B5 VL with N30S, N31S, D33Y, T51G, A92S, T93N, V95L
notes: Soluble Fab-His
fold above background [5]: ≥ 6 fold | Fab Binding [6]: 1.7e+06 relative chemiluminescence units

B10: Fab F40 (VH H32, VL L42) (Fab, V domains shown)
VH: EVQLVQSGGGLVQPGGSLRLSCAASGFTFSSYAMSWVRQAPGKGLEWVSVINSDGSSIYYADSVKGRFTISRDNSKNTLYLQMNSLRAEDTAVYYCAKLEAIDYAWGFDYWGQGTLVTVSS
VL: B7 VL with K50N, N92F, G93H, R96L
notes: Soluble Fab-His; converted to mAb B16; the Fab's H32 may differ in FR1
fold above background [5]: ≥ 6 fold | Fab Binding [6]: 8.1e+06 relative chemiluminescence units

B11: Fab F89 (VH H70, VL L82) (Fab, V domains shown)
VH: B5 VH
VL: B5 VL
notes: Soluble Fab-His; converted to mAb B9
fold above background [5]: ≥ 6 fold | Fab Binding [6]: 5.7e+06 relative chemiluminescence units

From patent US20150087812A1 (Janssen / Centocor, published 2015)
